Source: paper PMC6770577 (2019)
No end group written: not given here. *: point of attachment. FITC = O=C1OC2(c3ccc(O)cc3Oc3cc(O)ccc32)c2ccc(NC(=S)*)cc21

What was measured:
S100A1 = target: T1, S100A1 (Homo sapiens, UniProt P23297); assay: steady-state fluorescence anisotropy
T1 chain: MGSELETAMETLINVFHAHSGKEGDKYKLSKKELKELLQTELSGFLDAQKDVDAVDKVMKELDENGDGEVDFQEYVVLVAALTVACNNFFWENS

CaM = CaM (Homo sapiens, UniProt P0DP23); assay: steady-state fluorescence anisotropy

Kd (S100A1): 17.8 µM | Kd (CaM): 14.9 µM
Binder: {FITC}-LIGRAYRSNYTRKHFR [TRPM6np]
